The target of assay [1] is T1, recombinant human CD123 protein (CD123, Fc-Fusion (IgG1) Avi-Tag, Biotin-Labeled, BPS Bioscience Cat.100068-2) (human, UniProt P26951 19-305, limits assumed, biotin-labeled (Avi-Tag)).
T1 construct: Bought protein; not shown: IgG1 Fc; Avi-Tag
T1 sequence (looked up): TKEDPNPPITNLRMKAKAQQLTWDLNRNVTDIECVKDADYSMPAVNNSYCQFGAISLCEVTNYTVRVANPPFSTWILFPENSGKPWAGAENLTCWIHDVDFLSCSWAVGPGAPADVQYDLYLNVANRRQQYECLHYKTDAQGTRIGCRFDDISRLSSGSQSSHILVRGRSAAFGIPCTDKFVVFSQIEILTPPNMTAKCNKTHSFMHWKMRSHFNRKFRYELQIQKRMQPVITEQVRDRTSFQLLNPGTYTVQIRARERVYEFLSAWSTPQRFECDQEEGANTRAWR
Description: BLI (Octet), CD123-Fc on anti-human Fc sensors, IgM in solution.

For another assay, the target named is T2, Human CD123.
T2 construct: It is a different reagent from m11 (Acro, His) and m13 (BPS, Fc); also called recombinant human CD123 protein (Sino Biological 10518-H08H-50); not shown: The tag of the vendor's product
T2 chain: T1 sequence (looked up)
Description: ELISA, plate coated with 0.2 ug/mL recombinant human CD123 (Sino Biological), detection with HRP anti-human kappa, chemiluminescence. As to the method: 96-well white polystyrene ELISA plates (Pierce 15042) were coated with 100 μL per well of 0.2 μg/mL recombinant human CD123 protein (Sino Biological 10518-H08H-50) or 0.5 μg/ml recombinant human CD3ε protein (Acro Biosystems, CDE-H5256-100) overnight at 4° C. Plates were then washed 5 times with 0.05% PBS-Tween and blocked with 2% BSA-PBS. After blocking, 100 μL of serial dilutions of CD123×CD3 IgM antibodies, standards, and controls were added to the wells and incubated at room temperature for 2 hours. The plates were then washed 10 times and incubated with HRP conjugated mouse anti-human kappa (Southern Biotech, 9230-05. 1:6000 diluted in 2% BSA-PBS) for 30 min. After 10 final washes using 0.05% PBS-Tween, the plates were read out using SuperSignal chemiluminescent substrate (ThermoFisher, 37070). Luminescent data were collected on an EnVision plate reader (Perkin-Elmer) and analyzed with GraphPad Prism using a 4-parameter logistic model.

The target of assay [2] is T3, recombinant human CD123 protein (CD123)-His Acrobio #ILA-H52H6 (human, UniProt P26951 19-305).
T3 construct: Bought protein; also called hu IL-3R alpha (CD123)-His; not shown: His tag
T3 sequence (looked up): T1 sequence (looked up)
Description: BLI (Octet), CD123-His on anti-penta-His sensors, IgG in solution, 1:1 global fit. On the procedure: PBST (1×PBS+1% BSA+0.05% Tween-20) buffer was used as Antibody/CD123 dilution and sensor hydration buffer. The experiment followed a five-step sequential assay at 24° C. First, biosensors were hydrated for 10 minutes. Samples and buffer were applied in 384-well plate. After initial baseline for 60 s, sensors were loaded with 7 nM hu IL-3R alpha (CD123)-His Acrobio #ILA-H52H6. The biosensors were dipped into PBST for 20 s to reach baseline, then incubated for 420 s with 2-fold serial diluted anti-CD123 antibodies starting at 10 nM for association, followed by 900 s in PBST for dissociation. Results were analyzed by ForteBio Data Analysis software 9.0 using 1:1 global fit model.

Residue numbers refer to the chain shown, from its start.

By Kd is commonly meant the concentration at which binding is half-saturated. A word on the koff: it is the rate constant with which the complex falls apart. A word on the kon: it is a measure of how fast the partners come together. The EC50 (read off the curve) is the midpoint of the concentration-response curve.

B1: 32716 IgM (CD123xCD3 IgM antibody) (bispecific antibody)
VH: QIQLVQSGPELKKPGETVKISCKASGYIFTNYGMNWVKQAPGKSFKWMGWINTYTGESTYSADFKGRFAFSLETSASTAYLHINDLKNEDTATYFCARSGGYDPMDYWGQGTSVTVSS
VL: DIVLTQSPASLAVSLGQRATISCRASESVDNYGNTFMHWYQQKPGQPPKLLIYRASNLESGIPARFSGSGSRTDFTLTINPVEADDVATYYCQQSNEDPPTFGAGTKLELK
J-chain: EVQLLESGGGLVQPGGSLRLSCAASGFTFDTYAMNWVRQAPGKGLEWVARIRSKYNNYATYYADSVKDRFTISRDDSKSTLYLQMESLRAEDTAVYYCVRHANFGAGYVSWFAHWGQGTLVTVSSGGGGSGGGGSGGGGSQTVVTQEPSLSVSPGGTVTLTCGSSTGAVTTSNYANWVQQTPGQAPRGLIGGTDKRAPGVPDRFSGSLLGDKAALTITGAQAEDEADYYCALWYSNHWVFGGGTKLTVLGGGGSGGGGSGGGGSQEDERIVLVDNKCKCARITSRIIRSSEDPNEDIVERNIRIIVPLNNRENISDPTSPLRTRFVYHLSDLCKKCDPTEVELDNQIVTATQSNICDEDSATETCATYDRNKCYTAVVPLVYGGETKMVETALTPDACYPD
notes: Pentameric IgM with J-chain; also called original mouse antibody
In the case of B1, in assay [1], the Kd was under 1 pM, the koff is under 1e-07 s⁻¹ and the kon worked out at 4.1e+06 M⁻¹ s⁻¹. Besides, in the assay with Human CD123, the “EC50 (read off the curve)” value was about 30 pM.

B2: 32716 IgG (antibody, V domains shown)
VH: B1 VH
VL: B1 VL
notes: Parental mouse variable domains cloned into human IgG format; detected with anti-human kappa; also called original mouse antibody
In the case of B2, in assay [2], the Kd amounted to 440 pM, the koff was 0.0003 s⁻¹ and the kon was 710000 M⁻¹ s⁻¹.

B3: h32716-4-2 IgM (CD123xCD3 IgM antibody) (bispecific antibody)
VH: QVQLVQSGPELKKPGASVKVSCKASGYIFTNYGMNWVRQAPGQGLEWMGWINTYTGESTYSADFKGRFVFSLDTSVSTAYLQISSLKAEDTAVYYCARSGGYDPMDYWGQGTLVTVSS
VL: DIQMTQSPSSLSASVGDRVTITCRASESVDNYGNTFMHWYQQKPGKAPKLLIYRASNLESGVPSRFSGSGSGTDFTFTISSLQPEDIATYYCQQSNEDPPTFGQGTKVEIK
chain: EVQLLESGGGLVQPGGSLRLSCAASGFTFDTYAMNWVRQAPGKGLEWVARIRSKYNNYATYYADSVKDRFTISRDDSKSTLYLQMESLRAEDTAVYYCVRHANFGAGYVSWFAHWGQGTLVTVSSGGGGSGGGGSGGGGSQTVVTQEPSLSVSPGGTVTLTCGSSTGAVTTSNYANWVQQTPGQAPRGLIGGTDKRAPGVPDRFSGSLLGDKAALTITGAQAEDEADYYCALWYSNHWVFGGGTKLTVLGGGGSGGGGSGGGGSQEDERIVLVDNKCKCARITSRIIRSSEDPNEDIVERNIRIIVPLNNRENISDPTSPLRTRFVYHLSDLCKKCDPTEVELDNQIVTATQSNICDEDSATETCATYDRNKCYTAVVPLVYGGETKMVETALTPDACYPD
notes: Pentameric IgM with modified J-chain
For the molecule B3, in assay [1], the Kd turned out to be 4.43 pM, the koff worked out at 1.69e-05 s⁻¹ and the kon stood at 3.82e+06 M⁻¹ s⁻¹. Besides, the “EC50 (read off the curve)” value with Human CD123 was about 80 pM.

B4: h32716-5-2 IgG (antibody, V domains shown)
VH: B3 VH with R38K
VL: B3 VL
notes: Human IgG format
Take B4: in assay [2], the Kd worked out at 710 pM, the koff amounted to 0.00045 s⁻¹ and the kon worked out at 700000 M⁻¹ s⁻¹.

B5: h32716-4-2 IgG (antibody, V domains shown)
VH: B3 VH
VL: B3 VL
notes: Human IgG format
In the case of B5, in assay [2], the Kd was 600 pM, the koff is 0.00046 s⁻¹ and the kon was determined as 770000 M⁻¹ s⁻¹.

B6: h32716-6-2 IgG (antibody, V domains shown)
VH: B3 VH with R38K, L45F, E46K
VL: B3 VL
notes: Human IgG format
As to B6, in assay [2], the Kd was determined as 330 pM and the koff was found to be 0.0002 s⁻¹.

B7: h32716-1-1 IgM (CD123xCD3 IgM antibody) (bispecific antibody)
VH: QVQLVQSGAEVKKPGSSVKVSCKASGYIFTNYGMNWVRQAPGQGLEWMGWINTYTGESTYSADFKGRVTITADESTSTAYMELSSLRSEDTAVYYCARSGGYDPMDYWGQGTLVTVSS
VL: DIVMTQSPDSLAVSLGERATINCRASESVDNYGNTFMHWYQQKPGQPPKLLIYRASNLESGVPDRFSGSGSGTDFTLTISSLQAEDVAVYYCQQSNEDPPTFGQGTRLEIK
chain: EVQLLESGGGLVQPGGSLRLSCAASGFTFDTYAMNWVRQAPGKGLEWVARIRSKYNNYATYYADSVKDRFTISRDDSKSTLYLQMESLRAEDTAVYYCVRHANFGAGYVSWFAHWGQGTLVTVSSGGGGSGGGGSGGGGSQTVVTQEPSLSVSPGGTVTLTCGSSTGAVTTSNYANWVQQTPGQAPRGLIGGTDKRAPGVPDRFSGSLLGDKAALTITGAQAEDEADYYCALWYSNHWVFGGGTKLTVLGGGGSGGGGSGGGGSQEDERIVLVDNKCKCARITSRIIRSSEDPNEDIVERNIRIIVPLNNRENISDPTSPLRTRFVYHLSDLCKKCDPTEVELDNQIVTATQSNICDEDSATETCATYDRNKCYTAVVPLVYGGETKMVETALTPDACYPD
notes: as for B3
With B7, in assay [1], the Kd was under 1 pM, the koff is under 1e-07 s⁻¹ and the kon came to 3.9e+06 M⁻¹ s⁻¹. In addition, in the assay with Human CD123, the “EC50 (read off the curve)” value fell in the range of 100 to 200 pM.

B8: h32716-2-1 IgG (antibody, V domains shown)
VH: B7 VH with R38K, V68F, I70F, A72L
VL: B7 VL
notes: Human IgG format
With B8, in assay [2], the Kd was determined as 450 pM, the koff stood at 0.00049 s⁻¹ and the kon is 1.1e+06 M⁻¹ s⁻¹.

B9: h32716-1-1 IgG (antibody, V domains shown)
VH: B7 VH
VL: B7 VL
notes: Human IgG format
In the case of B9, in assay [2], the Kd was 360 pM, the koff was found to be 0.0004 s⁻¹ and the kon came to 940000 M⁻¹ s⁻¹.

B10: h32716-3-1 IgG (antibody, V domains shown)
VH: B7 VH with R38K, L45F, E46K, V68F, I70F, A72L
VL: B7 VL
notes: Human IgG format
B10: in assay [2], the Kd turned out to be 250 pM, the koff came out at 0.00031 s⁻¹ and the kon was found to be 1.2e+06 M⁻¹ s⁻¹.

Source of the values: patent publication US20240076392A1 (IGM BIOSCIENCES, published 2024).
